PMC6586363

Molecular target: recombinant human PKM2, wild type (human) (UniProt P14618)
Assay: native gel or EMSA; blue native gel electrophoresis of recombinant PKM2 (WT or mutant) or PKM1, alone or with FBP and/or scFv 5; resolves dimer and tetramer forms

Sequence of recombinant human PKM2, wild type, P14618 1-531 (enzyme; other documents disagree on this pair) (P14618 whole entry): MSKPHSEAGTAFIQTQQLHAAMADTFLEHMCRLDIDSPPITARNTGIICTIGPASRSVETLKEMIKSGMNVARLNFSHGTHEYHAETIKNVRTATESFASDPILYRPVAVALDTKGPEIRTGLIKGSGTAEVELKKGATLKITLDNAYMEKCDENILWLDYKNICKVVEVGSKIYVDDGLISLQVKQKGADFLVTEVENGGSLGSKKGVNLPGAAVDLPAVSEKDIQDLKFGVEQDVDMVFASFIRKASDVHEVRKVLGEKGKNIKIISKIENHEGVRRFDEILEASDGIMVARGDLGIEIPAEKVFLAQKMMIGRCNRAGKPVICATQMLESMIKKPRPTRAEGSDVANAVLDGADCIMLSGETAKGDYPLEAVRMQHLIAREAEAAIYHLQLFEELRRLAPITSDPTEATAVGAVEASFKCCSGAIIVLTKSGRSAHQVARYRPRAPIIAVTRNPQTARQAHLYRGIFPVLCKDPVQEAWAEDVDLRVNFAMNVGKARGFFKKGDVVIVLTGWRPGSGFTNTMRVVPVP

stoichiometry N: 2
Substance: recombinant human PKM2, wild type, P14618 1-531 (enzyme; other documents disagree on this pair)
